What is called stoichiometry N is the number of molecules, sites or subunits per partner or assembly.

Series [1] deals with the molecule itself. Put plainly: negative-stain electron microscopy; purified FliI 1 μM in 50 mM Tris-HCl pH 8.0, 113 mM NaCl, 0.8 mM EDTA, 1 mM DTT with 5 mM MgCl2, 5 mM ADP, 5 mM AlCl3, 15 mM NaF, 20 min at room temperature; uranyl acetate stain; reference-free 2D class averages (RELION); monomers to hexameric ring.
Another series deals with T1, GST-FliJ (Salmonella enterica, UniProt P0A1K1 1-147).
T1 construct: FliJ of Salmonella enterica; source: S. enterica SJW1368, purified (Glutathione Sepharose 4B)
Put plainly: pull-down; GST affinity chromatography: purified His-FliI or His-FliI-5A mixed with purified GST or GST fusions, dialysed overnight against PBS at 4 °C; Glutathione Sepharose 4B; wash 10 ml PBS; elution with 10 mM reduced glutathione; CBB and anti-FliI immunoblot. The note with it: both partners purified.

Numbering of substitutions follows the chain as printed. Names may count otherwise.

T1 sequence (P0A1K1 whole entry): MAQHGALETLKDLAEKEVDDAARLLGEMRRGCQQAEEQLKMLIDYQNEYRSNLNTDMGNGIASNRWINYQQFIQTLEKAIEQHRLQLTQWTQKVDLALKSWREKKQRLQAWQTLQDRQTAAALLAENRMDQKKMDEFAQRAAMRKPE

B1: His-FliI(R26A/R27A/R33A/R76A/R93A) (enzyme)
chain: MTTRLTRWLTALDNFEAKMALLPAVAAYGRLTAATGLVLEATGLQLPLGATCIIERQDGPETKEVESEVVGFNGQALFLMPLEEVEGILPGAAVYARNGHGDGLQSGKQLPLGPALLGRVLDGGGKPLDGLPAPDTLETGALITPPFNPLQRTPIEHVLDTGVRAINALLTVGRGQRMGLFAGSGVGKSVLLGMMARYTRADVIVVGLIGERGREVKDFIENILGPDGRARSVVIAAPADVSPLLRMQGAAYATRIAEDFRDRGQHVLLIMDSLTRYAMAQREIALAIGEPPATKGYPPSVFAKLPALVERAGNGIHGGGSITAFYTVLTEGDDQQDPIADSARAILDGHIVLSRRLAEAGHYPAIDIEASISRAMTALITEQHYARVRLFKQLLSSFQRNRDLVSVGAYAKGSDPMLDKAITLWPQLEAFLQQGIFERADWEDSLQALDLIFPTV
notes: FliI of Salmonella enterica, UniProt P26465, with R26A/R27A/R33A/R76A/R93A; also called FliI-5A; His-FliI-5A; source: S. enterica SJW1368, pTrc99A-based plasmid co-expressing FliH; in lysate (Ni pull-down) and purified (Ni-NTA, then SEC to remove FliH)
On to B1, for which the “stoichiometry N” value in series [1] came to 6. Further, in the series with GST-FliJ, the binding result is recorded as “binds”.

B2: His-FliI(R26A/R27A/R33A/R76A) (enzyme)
chain: B1 chain with A93R
notes: FliI of Salmonella enterica, UniProt P26465, with R26A/R27A/R33A/R76A; also called FliI-4A; His-FliI-4A; source: S. enterica SJW1368, pTrc99A-based plasmid co-expressing FliH; in lysate (Ni pull-down) and purified (Ni-NTA, then SEC to remove FliH)
For B2, the “stoichiometry N” value in series [1] came out at 6.

B3: His-FliI(R26A/R27A/R33A) (enzyme)
chain: B1 chain with A76R, A93R
notes: FliI of Salmonella enterica, UniProt P26465, with R26A/R27A/R33A; also called FliI-3A; His-FliI-3A; source: E. coli BL21 (DE3) Star, pET19b-based plasmid, purified (Ni-NTA, Superdex 200 SEC)
For the molecule B3, the “stoichiometry N” value in series [1] is approximately 6.

These data come from publication PMC8041783, “A positive charge region of Salmonella FliI is required for ATPase formation and efficient flagellar protein export” (Communications Biology, 2021).
